Experimental data published in IntAct's records for PubMed 26192437.

B1: CDK5 regulatory subunit-associated protein 2 (Homo sapiens), Q96SN8 (parent)
chain: MMDLVLEEDVTVPGTLSGCSGLVPSVPDDLDGINPNAGLGNGLLPNVSEETVSPTRARNMKDFENQITELKKENFNLKLRIYFLEERMQQEFHGPTEHIYKTNIELKVEVESLKRELQEREQLLIKASKAVESLAEAGGSEIQRVKEDARKKVQQVEDLLTKRILLLEKDVTAAQAELEKAFAGTETEKALRLRLESKLSEMKKMHEGDLAMALVLDEKDRLIEELKLSLKSKEALIQCLKEEKSQMACPDENVSSGELRGLCAAPREEKERETEAAQMEHQKERNSFEERIQALEEDLREKEREIATEKKNSLKRDKAIQGLTMALKSKEKKVEELNSEIEKLSAAFAKAREALQKAQTQEFQGSEDYETALSGKEALSAALRSQNLTKSTENHRLRRSIKKITQELSDLQQERERLEKDLEEAHREKSKGDCTIRDLRNEVEKLRNEVNEREKAMENRYKSLLSESNKKLHNQEQVIKHLTESTNQKDVLLQKFNEKDLEVIQQNCYLMAAEDLELRSEGLITEKCSSQQPPGSKTIFSKEKKQSSDYEELIQVLKKEQDIYTHLVKSLQESDSINNLQAELNKIFALRKQLEQDVLSYQNLRKTLEEQISEIRRREEESFSLYSDQTSYLSICLEENNRFQVEHFSQEELKKKVSDLIQLVKELYTDNQHLKKTIFDLSCMGFQGNGFPDRLASTEQTELLASKEDEDTIKIGEDDEINFLSDQHLQQSNEIMKDLSKGGCKNGYLRHTESKISDCDGAHAPGCLEEGAFINLLAPLFNEKATLLLESRPDLLKVVRELLLGQLFLTEQEVSGEHLDGKTEKTPKQKGELVHFVQTNSFSKPHDELKLSCEAQLVKAGEVPKVGLKDASVQTVATEGDLLRFKHEATREAWEEKPINTALSAEHRPENLHGVPGWQAALLSLPGITNREAKKSRLPILIKPSRSLGNMYRLPATQEVVTQLQSQILELQGELKEFKTCNKQLHQKLILAEAVMEGRPTPDKTLLNAQPPVGAAYQDSPGEQKGIKTTSSVWRDKEMDSDQQRSYEIDSEICPPDDLASLPSCKENPEDVLSPTSVATYLSSKSQPSAKVSVMGTDQSESINTSNETEYLKQKIHDLETELEGYQNFIFQLQKHSQCSEAIITVLCGTEGAQDGLSKPKNGSDGEEMTFSSLHQVRYVKHVKILGPLAPEMIDSRVLENLKQQLEEQEYKLQKEQNLNMQLFSEIHNLQNKFRDLSPPRYDSLVQSQARELSLQRQQIKDGHGICVISRQHMNTMIKAFEELLQASDVDYCVAEGFQEQLNQCAELLEKLEKLFLNGKSVGVEMNTQNELMERIEEDNLTYQHLLPESPEPSASHALSDYETSEKSFFSRDQKQDNETEKTSVMVNSFSQDLLMEHIQEIRTLRKRLEESIKTNEKLRKQLERQGSEFVQGSTSIFASGSELHSSLTSEIHFLRKQNQALNAMLIKGSRDKQKENDKLRESLSRKTVSLEHLQREYASVKEENERLQKEGSEKERHNQQLIQEVRCSGQELSRVQEEVKLRQQLLSQNDKLLQSLRVELKAYEKLDEEHRRLREASGEGWKGQDPFRDLHSLLMEIQALRLQLERSIETSSTLQSRLKEQLARGAEKAQEGALTLAVQAVSIPEVPLQPDKHDGDKYPMESDNSFDLFDSSQAVTPKSVSETPPLSGNDTDSLSCDSGSSATSTPCVSRLVTGHHLWASKNGRHVLGLIEDYEALLKQISQGQRLLAEMDIQTQEAPSSTSQELGTKGPHPAPLSKFVSSVSTAKLTLEEAYRRLKLLWRVSLPEDGQCPLHCEQIGEMKAEVTKLHKKLFEQEKKLQNTMKLLQLSKRQEKVIFDQLVVTHKILRKARGNLELRPGGAHPGTCSPSRPGS

Variants of: B1
Settings: with tbg1_human TUBG1, P23258
Chain of tbg1_human TUBG1, P23258 (P23258 whole entry): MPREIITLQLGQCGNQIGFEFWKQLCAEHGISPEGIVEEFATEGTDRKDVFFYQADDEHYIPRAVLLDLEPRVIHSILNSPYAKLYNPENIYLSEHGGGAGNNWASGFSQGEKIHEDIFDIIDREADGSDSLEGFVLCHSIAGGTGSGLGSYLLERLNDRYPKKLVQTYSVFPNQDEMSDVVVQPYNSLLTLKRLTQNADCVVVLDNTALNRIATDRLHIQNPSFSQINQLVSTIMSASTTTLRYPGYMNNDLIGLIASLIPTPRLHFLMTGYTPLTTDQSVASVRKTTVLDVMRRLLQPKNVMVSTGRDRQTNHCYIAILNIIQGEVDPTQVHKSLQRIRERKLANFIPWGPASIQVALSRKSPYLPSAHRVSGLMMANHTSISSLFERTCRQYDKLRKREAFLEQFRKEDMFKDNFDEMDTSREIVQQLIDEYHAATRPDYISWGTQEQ

effect of a mutation on the interaction	Variant
decreasing interaction strength	S140A
